Where no end group is shown, it is not given here. [ ]: non-standard residue; d: D form. pS = N[C@@H](COP(=O)(O)O)C(=O)O
Key:
[1] = target: 14-3-3 protein (endogenous rice OsGF14; isoform not specified); assay: cell-based or functional assay
[2] = target: T1, OsGF14b (Os04g0462500), full-length, yeast two-hybrid fusion (rice, UniProt Q7XTE8 1-262); assay: yeast two-hybrid, growth on selective medium
T1 construct: not shown: two-hybrid fusion partner encoded by pBTM116-GW or pVP16-GW
T1 sequence: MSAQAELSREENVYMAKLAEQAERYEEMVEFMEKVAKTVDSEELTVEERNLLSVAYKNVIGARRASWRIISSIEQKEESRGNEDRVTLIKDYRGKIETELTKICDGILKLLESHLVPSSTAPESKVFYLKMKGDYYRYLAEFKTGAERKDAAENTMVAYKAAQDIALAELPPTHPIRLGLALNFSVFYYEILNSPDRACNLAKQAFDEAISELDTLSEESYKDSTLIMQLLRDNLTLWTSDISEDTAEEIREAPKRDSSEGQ
Experimental: (§1) For an interaction assay, pBTM116 and pVP16 were converted to pBTM116-GW and pVP16-GW, respectively, using a Gateway vector conversion system (Invitrogen) according to the manufacturer's instructions. Yeast cells were grown at 30° C. for 5 days using an SC medium (without uracil, tryptophan, leucine, and histidine), the medium containing added histidine or 1 to 10 mM 3-aminotriazole (+His or +3-AT). The concentration of 3-AT was determined by a bait-prey combination.
(§2) Various mutant proteins were produced by constructing plasmids as described below. […] The PCR-amplified fragments were cloned into a pENTR/D-TOPO cloning vector (Invitrogen) to obtain entry clones.

[3] = target: T2, OsGF14b mutant F206A, yeast two-hybrid fusion (rice, UniProt Q7XTE8 1-262); assay: yeast two-hybrid, growth on selective medium
T2 construct: not shown: yeast two-hybrid fusion partner encoded by pBTM116-GW or pVP16-GW, and its linker
T2 sequence: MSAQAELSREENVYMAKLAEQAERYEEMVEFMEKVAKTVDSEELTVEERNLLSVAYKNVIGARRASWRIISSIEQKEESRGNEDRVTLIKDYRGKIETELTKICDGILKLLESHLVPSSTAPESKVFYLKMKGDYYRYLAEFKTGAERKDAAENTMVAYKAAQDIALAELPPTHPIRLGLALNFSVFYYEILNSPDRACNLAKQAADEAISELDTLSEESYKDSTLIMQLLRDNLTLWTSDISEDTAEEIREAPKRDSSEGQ
Experimental: as §1, §2

[4] = target: T3, OsGF14b mutant I210A, yeast two-hybrid fusion (rice, UniProt Q7XTE8 1-262); assay: yeast two-hybrid, growth on selective medium
T3 construct: not shown: yeast two-hybrid fusion partner encoded by pBTM116-GW or pVP16-GW, and its linker
T3 sequence: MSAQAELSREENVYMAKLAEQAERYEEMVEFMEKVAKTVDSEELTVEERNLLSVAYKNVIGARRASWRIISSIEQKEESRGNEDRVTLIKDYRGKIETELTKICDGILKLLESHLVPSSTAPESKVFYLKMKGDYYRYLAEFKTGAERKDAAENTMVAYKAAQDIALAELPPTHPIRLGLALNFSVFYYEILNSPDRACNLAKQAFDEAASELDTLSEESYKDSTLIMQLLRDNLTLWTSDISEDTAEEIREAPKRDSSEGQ
Experimental: as §1, §2

[5] = target: T4, OsGF14b mutant E218A, yeast two-hybrid fusion (rice, UniProt Q7XTE8 1-262); assay: yeast two-hybrid, growth on selective medium
T4 construct: not shown: yeast two-hybrid fusion partner encoded by pBTM116-GW or pVP16-GW, and its linker
T4 sequence: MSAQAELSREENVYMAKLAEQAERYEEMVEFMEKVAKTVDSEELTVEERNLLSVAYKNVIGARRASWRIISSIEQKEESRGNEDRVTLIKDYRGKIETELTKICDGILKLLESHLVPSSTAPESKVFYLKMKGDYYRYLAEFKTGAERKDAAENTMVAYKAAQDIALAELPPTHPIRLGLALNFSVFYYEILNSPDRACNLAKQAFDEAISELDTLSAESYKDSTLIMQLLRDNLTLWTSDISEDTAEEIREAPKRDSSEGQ
Experimental: as §1, §2

[6] = target: T5, OsGF14b mutant Y221A, yeast two-hybrid fusion (rice, UniProt Q7XTE8 1-262); assay: yeast two-hybrid, growth on selective medium
T5 construct: not shown: two-hybrid fusion partner encoded by pBTM116-GW or pVP16-GW
T5 sequence: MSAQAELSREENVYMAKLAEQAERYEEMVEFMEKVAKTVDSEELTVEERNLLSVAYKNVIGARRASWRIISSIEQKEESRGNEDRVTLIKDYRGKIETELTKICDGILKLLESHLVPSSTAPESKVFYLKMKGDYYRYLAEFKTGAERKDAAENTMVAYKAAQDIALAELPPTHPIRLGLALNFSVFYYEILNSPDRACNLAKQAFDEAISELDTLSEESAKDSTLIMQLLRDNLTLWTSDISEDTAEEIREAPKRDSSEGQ
Experimental: as §1, §2

[7] = target: T6, OsGF14b mutant R232A, yeast two-hybrid fusion (rice, UniProt Q7XTE8 1-262); assay: yeast two-hybrid, growth on selective medium
T6 construct: not shown: two-hybrid fusion partner encoded by pBTM116-GW or pVP16-GW
T6 sequence: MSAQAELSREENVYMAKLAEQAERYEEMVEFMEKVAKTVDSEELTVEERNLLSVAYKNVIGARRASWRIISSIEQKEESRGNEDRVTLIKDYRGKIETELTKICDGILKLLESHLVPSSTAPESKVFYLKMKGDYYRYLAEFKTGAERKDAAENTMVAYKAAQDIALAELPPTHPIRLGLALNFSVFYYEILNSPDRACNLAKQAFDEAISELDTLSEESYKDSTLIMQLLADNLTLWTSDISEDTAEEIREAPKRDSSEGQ
Experimental: as §1, §2

[8] = target: T7, OsGF14b mutant D233A, yeast two-hybrid fusion (rice, UniProt Q7XTE8 1-262); assay: yeast two-hybrid, growth on selective medium
T7 construct: not shown: two-hybrid fusion partner encoded by pBTM116-GW or pVP16-GW
T7 sequence: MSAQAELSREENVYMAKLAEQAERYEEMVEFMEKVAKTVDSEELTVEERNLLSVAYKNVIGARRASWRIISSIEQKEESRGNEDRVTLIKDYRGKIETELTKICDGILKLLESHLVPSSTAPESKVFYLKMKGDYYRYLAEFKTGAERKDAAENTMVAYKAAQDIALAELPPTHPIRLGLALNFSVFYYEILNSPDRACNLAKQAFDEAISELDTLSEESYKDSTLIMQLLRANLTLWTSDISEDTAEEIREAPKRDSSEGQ
Experimental: as §1, §2

[9] = target: T8, GF14b, full-length, Vn- or Vc-tagged (BiFC) (rice, UniProt Q7XTE8 1-262); assay: BiFC (Venus) in rice Oc protoplasts
T8 construct: it is put first only for listing; also called OsGF14b; not shown: Vn or Vc fragment of Venus (BiFC tag), at the N- or C-terminal
T8 sequence: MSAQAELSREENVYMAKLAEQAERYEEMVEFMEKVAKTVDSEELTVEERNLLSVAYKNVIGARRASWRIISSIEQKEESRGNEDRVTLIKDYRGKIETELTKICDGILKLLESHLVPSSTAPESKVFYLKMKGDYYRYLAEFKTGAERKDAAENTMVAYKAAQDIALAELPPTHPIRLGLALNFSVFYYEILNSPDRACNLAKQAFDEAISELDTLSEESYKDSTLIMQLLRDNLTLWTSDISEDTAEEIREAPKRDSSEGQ
Experimental: (§3) (1) The transformation of rice Oc protoplasts was performed by a method described in Kyozuka and Shimamoto 1991, Plant J. 6, 271 (1994), Non Patent Literature 1, or the like. Fluorescent protein expression vectors having introduced therein various proteins were introduced into a protoplast suspension (2×10⁷ protoplasts/ml) by a PEG method (PEG-mediated method). After incubation at 30° C. for 24 hours, transformed protoplasts were obtained and used for microscopic observation.
(§4) Therefore, the number of cells showing higher values than the above-mentioned values was scored.

[10] = target: T9, Hd3a, full-length, Vn- or Vc-tagged (BiFC) (rice, UniProt Q93WI9 1-179); assay: BiFC (Venus) in rice Oc protoplasts (endogenous 14-3-3 proteins present)
T9 construct: it is put first only for listing; not shown: Vn or Vc fragment of Venus (BiFC tag), at the N- or C-terminal
Experimental: as §3, §4

[11] = target: T10, GST-fused Hd3a protein (full-length Hd3a) (rice, UniProt Q93WI9 1-179); assay: in vitro GST pull-down, GST-Hd3a on glutathione resin, SDS-PAGE
T10 construct: also called GST-Hd3a; not shown: GST (glutathione S-transferase) fusion partner
Experimental: After that, the resin was washed with a phosphate buffer (pH 6.8) containing 50 mM KCl and 1 mM DTT to remove a free GST-fused protein unbound to the resin. The isolated and purified GST protein bound to the resin was used as a negative control. […] After that, the resins were washed with a phosphate buffer (pH 6.8) containing 50 mM KCl and 1 mM DTT to remove a free GST-GF14c polypeptide unbound to the resins. Each of the bound proteins was eluted with a phosphate buffer (pH 6.8) containing 50 mM glutathione, 50 mM KCl, and 1 mM DTT and confirmed by SDS polyacrylamide electrophoresis.

[12] = target: T11, GF14c residues 1 to 235 (crystallization construct) (rice, UniProt Q6ZKC0 1-235); assay: X-ray crystal structure of the florigen activation complex; peptide soaked into Hd3a-GF14c crystals
T11 construct: Expressed in E. coli and purified; co-crystallized with Hd3a 6-170; also called 14-3-3 protein
T11 sequence: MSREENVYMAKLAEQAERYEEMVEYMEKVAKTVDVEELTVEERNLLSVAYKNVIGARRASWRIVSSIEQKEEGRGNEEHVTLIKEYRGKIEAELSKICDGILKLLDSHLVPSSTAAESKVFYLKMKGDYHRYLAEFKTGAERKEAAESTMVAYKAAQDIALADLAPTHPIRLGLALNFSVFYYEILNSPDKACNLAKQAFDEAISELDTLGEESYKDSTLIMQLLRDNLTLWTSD
Experimental: The crystallization of the complex was performed at 4° C. by a sitting drop method using a mixture of 1 μl of the protein solution (protein concentration: 10 mg/mL) and 1 μl of a precipitant solution (0.1 M HEPES (pH 7.5), 0.2 M ammonium sulfate, and 25% PEG 3350).

T10 sequence (Q93WI9 whole entry, the tested form may be a part): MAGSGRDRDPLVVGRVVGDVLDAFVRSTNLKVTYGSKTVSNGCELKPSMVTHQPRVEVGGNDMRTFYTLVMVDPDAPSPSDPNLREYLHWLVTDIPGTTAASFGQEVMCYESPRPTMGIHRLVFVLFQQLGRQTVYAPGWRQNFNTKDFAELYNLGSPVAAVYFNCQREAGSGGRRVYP
T9 sequence (Q93WI9 whole entry, the tested form may be a part): as above

## Hd3a-GFP-fused protein (full-length Hd3a coding region conjugated to GFP) (from UniProt Q93WI9 1-179)
[1]
  Days to flowering (days) of transgenic rice: 19.6 days

## Hd3a(R64G)-GFP (prolC::Hd3a(R64G)::GFP) (from UniProt Q93WI9 1-179)
[1]
  Days to flowering (days) of transgenic rice: 44.2 days

## Hd3a(R64G/R132A)-GFP (prolC::Hd3a(R64G/R132A)::GFP) (from UniProt Q93WI9 1-179)
[1]
  Days to flowering (days) of transgenic rice: 58.8 days

B1: OsFD1 (Os09g0540800), full-length, yeast two-hybrid fusion (other)
chain: MAMEDDEDMWANTSSPSASPPRPRGFISTALSLNSTHLQGLLPSSFVDAAASPCHASGNNNGGGDGRNAAPMSSIFFASASYHQQQHHLPAPAPLDGAILPARRFGLDMCAAAAAAPAGVPAAGDRRKRRMIKNRESAARSRARKQARVNNLETEVEQLKQENKMLRVKYEQLRKTVEVPVPVRRTLQRVLSAPF
notes: not shown: two-hybrid fusion partner encoded by pBTM116-GW or pVP16-GW
[2]
  binding result: binds
[3]
  binding result: binds
[4]
  binding result: binds
[5]
  binding result: binds
[6]
  binding result: binds
[7]
  binding result: binds
[8]
  binding result: binds

B2: OsFD1, full-length, Vn- or Vc-tagged (BiFC) (other)
chain: MAMEDDEDMWANTSSPSASPPRPRGFISTALSLNSTHLQGLLPSSFVDAAASPCHASGNNNGGGDGRNAAPMSSIFFASASYHQQQHHLPAPAPLDGAILPARRFGLDMCAAAAAAPAGVPAAGDRRKRRMIKNRESAARSRARKQARVNNLETEVEQLKQENKMLRVKYEQLRKTVEVPVPVRRTLQRVLSAPF
notes: it is put first only for listing; not shown: Vn or Vc fragment of Venus (BiFC tag), at the N- or C-terminal
[9]
  binding result: binds
[10]
  binding result: binds

B3: OsFD1 having a mutation of S192E in a region of positions 147 to 195 in SEQ ID NO: 3, not fused with GST (other)
chain: ARVNNLETEVEQLKQENKMLRVKYEQLRKTVEVPVPVRRTLQRVLEAPF
[11]
  binding result: no binding

B4: OsFD1 polypeptide, residues 187 to 195, chemically synthesized (peptide)
peptide: LQRVL[pS]APF
notes: Soaked at 2 mM into Hd3a-GF14c crystals
[12]
  binding result: binds

From patent US20130019345A1 (NATIONAL UNIVERSITY CORPORATION NARA INSTITUTE OF SCIENCE …, published 2013)
